Reference: patent US10519238 (dated 2019)

Experiments:
[1] = molecular target: T1, recombinant murine galectin-1 (R&D Systems) (UniProt P16045 2-135); assay: SPR (BIAcore)
T1 chain: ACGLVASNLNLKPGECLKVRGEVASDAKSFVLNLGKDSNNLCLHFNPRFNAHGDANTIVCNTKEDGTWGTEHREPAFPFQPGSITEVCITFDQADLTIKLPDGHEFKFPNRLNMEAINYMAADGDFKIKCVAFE

[2] = molecular target: recombinant human galectin-1 (R&D Systems) (UniProt P09382 2-135); assay: SPR (BIAcore)
Sequence of recombinant human galectin-1 (R&D Systems) (P09382 2-135): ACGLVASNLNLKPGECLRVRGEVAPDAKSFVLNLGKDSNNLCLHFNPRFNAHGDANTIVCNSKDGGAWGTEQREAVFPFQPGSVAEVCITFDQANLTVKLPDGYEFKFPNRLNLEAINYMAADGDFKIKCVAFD

B1: anti-Gal1 monoclonal antibody 8A12.H9.H10 (antibody, V domains shown)
VH: QAYLQQSGAELVRPGASVRMSCKASGYTFTRYNMHWVKQTPRQGLEWIGRIYPGNGDTSYNQKFKGKATLTVDKSSSTAYMQLSSLTSEDSAVYFCTVWDYWGQGTTLTVSS
VL: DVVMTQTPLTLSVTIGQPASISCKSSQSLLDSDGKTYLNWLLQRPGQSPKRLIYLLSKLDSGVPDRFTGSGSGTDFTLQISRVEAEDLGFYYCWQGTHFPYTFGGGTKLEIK
Kd [1]: 26.6 nM
Kd [2]: 71 nM
